Results from US20260193326A1 (published 2026).
Residue numbers refer to the chain shown, from its start.

B1: A4-047 (VHH)
VHH: VQLQESGGGLVQPGGSLRLSCAASGSRFSINTMGWYRQAPGKQRELVATVTRGGSTNYAGSVKGRFTISRDNAKNTVYLQMNSLRPEDTAVYYCHVDEVRQSSWTTSNLWGQGTQVTVSS
B2: A4-009 (VHH)
VHH: B1 VHH with V11A, L46F, T49A, S83T, L109I
B3: A4-018 (VHH)
VHH: B1 VHH with P13A, L46F, S55N, G60E, Q101D, L109I
B4: A4-025 (VHH)
VHH: B1 VHH with R27N, S29R, G60D, A73P, N75D, Q101E
B5: A4-029 (VHH)
VHH: B1 VHH with R27N, A39R, P40A, G60D, V96I, V99I, Q101E
B6: A4-016 (VHH)
VHH: B1 VHH with R27I, T32L, V50I, R52P, S55N
B7: A4-031 (VHH)
VHH: B1 VHH with R27G, R52S, G53A, V99I
B8: A4-008 (VHH)
VHH: B1 VHH with P13A, S26R, R27A, G41P, V77I, L109I
B9: A4-005 (VHH)
VHH: B1 VHH with P13A, S26R, R27H, T49A, S55G, V96I, L109I
B10: A4-004 (VHH)
VHH: B1 VHH with T49A, V96I, L109I
B11: A4-015 (VHH)
VHH: B1 VHH with R27I, T32L, P40A, V50I, R52P, S55N
B12: A4-003 (VHH)
VHH: B1 VHH with A22V, S26R, R27S, T49A, V96I, L109I
B13: A4-019 (VHH)
VHH: B1 VHH with P13A, R27T, V50I, G60D, L109I
B14: A4-027 (VHH)
VHH: B1 VHH with R27N, T49A, V50L, G60D, Q101E
B15: A4-006 (VHH)
VHH: B1 VHH with S26R, R27H, T49A, V96I, L109I
B16: A4-020 (VHH)
VHH: B1 VHH with P13A, R27T, V50I, S55N, G60D
B17: A4-017 (VHH)
VHH: B1 VHH with R27I, T32L, V50I, S55N
B18: A4-013 (VHH)
VHH: B1 VHH with T32S, S55N, G60D, Q101E
B19: A4-026 (VHH)
VHH: B1 VHH with R27N, S29R, T49P, G60D, Q101E
B20: A4-010 (VHH)
VHH: B1 VHH with P13A, R27I, T32S, S55N, G60D, Q101E
B21: A4-030 (VHH)
VHH: B1 VHH with R27S, S29T, T49A, V77I, V99I
B22: A4-022 (VHH)
VHH: B1 VHH with R27G, G53D, G60D, S61F, V96L, Q101E
B23: A4-014 (VHH)
VHH: B1 VHH with T32S, S55N, Q101E
B24: A4-023 (VHH)
VHH: B1 VHH with R27A, T49S, R52P, G60D, V77I, V96L, Q101E
B25: A4-007 (VHH)
VHH: B1 VHH with P13A, S26R, R27H, T49A, V96I, L109I
B26: A4-028 (VHH)
VHH: B1 VHH with R27N, S55D, G60D, V99I, Q101E
B27: A4-002 (VHH)
VHH: B1 VHH with S26R, R27S, T49A, V96I, L109I

target: T1, AAV8; test: SPR, AAV on CM5 chip;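 note: surface plasmon resonance with AAV amine-coupled to the chip as ligand, nanobodies injected as analyte over a concentration series, rate constants and affinity fitted from binding curves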
T1 construct: also called adeno-associated virus serotype 8
Experimental: (§1) AAV was amine-coupled to a CM5 sensor chip at a density of 500-800 response units (RU). Nanobodies were injected at seven concentrations (1-100 nM) with a flow rate of 45 μL/min, and chip regeneration was performed using glycine-HCl (pH 1.5). Binding curves at different nanobody concentrations were used to calculate kinetic parameters (Kₐ, Kd, KD) (Table 2 and FIG. 2).

Binder	Kd [nM]	koff [s⁻¹]	kon [M⁻¹ s⁻¹]
B1	0.104	2e-05	193000
B2	103	0.00219	21400
B3	34.9	0.00392	112000
B4	2.09	0.00026	124000
B5	0.486	4e-05	82300
B6	9.58	0.00146	152000
B7	182	0.00923	50700
B8	523	0.00164	3140
B9	4.39	0.00197	449000
B10	1.71	0.000286	167000
B11	9.74	0.0017	174000
B12	1.2	0.000277	232000
B13	6.84	0.00077	113000
B14	105	0.00085	8100
B15	5.87	0.00224	381000
B16	0.506	5.66e-05	112000
B17	140	0.0002	1430
B18	1220	0.00737	6060
B19	27.2	0.00184	67700
B20	169	0.00249	14700
B21	43.7	0.00034	7780
B22	1.19	6.2e-05	52100
B23	384	0.00109	2840
B24	143	0.00125	8730
B25	47.4	0.00367	77300
B26	6.34	0.00084	133000
B27	57.7	0.00618	107000

target: T2, AAV9; test: SPR, AAV on CM5 chip;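 note: surface plasmon resonance with AAV amine-coupled to the chip as ligand, nanobodies injected as analyte over a concentration series, rate constants and affinity fitted from binding curves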
T2 construct: also called adeno-associated virus serotype 9
Experimental: as §1

Binder	Kd [nM]	koff [s⁻¹]	kon [M⁻¹ s⁻¹]
B1	29.1	0.00147	50500
B2	100	0.0139	139000
B3	62.1	0.00745	120000
B4	0.737	0.00012	163000
B5	14.6	0.00141	96900
B6	131	0.00047	3600
B7	2240	0.00824	3690
B8	14.5	0.00012	8270
B9	88.5	0.021	237000
B10	4.51	0.00081	180000
B11	3.39	0.00017	50100
B12	184	0.00152	8240
B13	451	0.00525	11700
B14	208	0.00085	4090
B15	192	0.0244	127000
B16	73.7	0.00169	23000
B17	0.724	4e-05	55300
B18	480	0.0379	79100
B19	31	0.00253	81600
B20	380	0.0329	86600
B21	27.2	0.00025	9200
B22	28.5	0.0001	3510
B23	13.3	0.00085	64000
B24	2.88	0.00056	195000
B25	6.43	0.00089	138000
B26	1.09	9e-05	82400
B27	232	0.011	47500

target: T3, AAV5; test: SPR, AAV on CM5 chip;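 note: surface plasmon resonance with AAV amine-coupled to the chip as ligand, nanobodies injected as analyte over a concentration series, rate constants and affinity fitted from binding curves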
T3 construct: also called adeno-associated virus serotype 5
Experimental: as §1

Binder	Kd [nM]	koff [s⁻¹]	kon [M⁻¹ s⁻¹]
B1	7.79	0.00144	185000
B2	141	0.00698	49700
B3	0.962	0.00014	146000
B4	85.5	0.00041	4800
B5	92.8	0.00155	16700
B6	23.9	0.00158	66000
B7	41.9	0.00624	149000
B8	66	0.0174	264000
B9	1860	0.00193	
B10	37.5	0.00678	181000
B11	2.76	0.00052	189000
B12	8.24	0.00019	23100
B13	48.9	0.00156	31900
B14	236	0.00194	8220
B15	1.78	0.00032	179000
B16	169	0.00094	5550
B17	542	0.00164	3030
B18	7.24	0.00011	15200
B19	37.4	0.00625	167000
B20	267	0.00038	1420
B21	84.4	0.00028	3320
B22	9.61	0.00152	158000
B23	597	0.00529	8860
B24	12.4	0.00126	102000
B25	1260	0.0248	19700
B26	26.4	0.00162	61300
B27	138	0.00063	4570
